Blank lines part the entries; values can stand above or below the molecule they belong to.
Experiments:
[1] = target: T1, wtPSP (human phosphoserine phosphatase, PSP) (Homo sapiens, UniProt P78330, D32G); experiment: PNP-coupled phosphate release assay; format: biochemical
T1 construct: gene PSPH; recombinant human PSP with His-tag, plasmid pET28_hPSP, E. coli BL21(DE3), Talon purification, homodimer (54 kDa expected; 53 kDa by SEC)
T1 sequence (P78330 1-225 D32G): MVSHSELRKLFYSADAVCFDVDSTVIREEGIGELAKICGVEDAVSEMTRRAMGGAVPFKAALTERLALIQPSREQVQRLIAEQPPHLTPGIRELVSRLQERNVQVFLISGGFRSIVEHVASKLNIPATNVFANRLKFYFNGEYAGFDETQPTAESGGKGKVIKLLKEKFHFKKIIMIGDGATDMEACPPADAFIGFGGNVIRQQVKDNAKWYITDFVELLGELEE
Excerpt: (§1) PNP-coupled phosphate release assay on wtPSP (human phosphoserine phosphatase, PSP)

[2] = target: T2, wtPSP (human phosphoserine phosphatase, PSP) (Homo sapiens, UniProt P78330, D32G/R27S); experiment: PNP-coupled phosphate release assay; format: biochemical
T2 construct: gene PSPH; recombinant human PSP with His-tag, plasmid pET28_hPSP, E. coli BL21(DE3), Talon purification, homodimer (54 kDa expected; 53 kDa by SEC)
T2 sequence (P78330 1-225 R27S/D32G): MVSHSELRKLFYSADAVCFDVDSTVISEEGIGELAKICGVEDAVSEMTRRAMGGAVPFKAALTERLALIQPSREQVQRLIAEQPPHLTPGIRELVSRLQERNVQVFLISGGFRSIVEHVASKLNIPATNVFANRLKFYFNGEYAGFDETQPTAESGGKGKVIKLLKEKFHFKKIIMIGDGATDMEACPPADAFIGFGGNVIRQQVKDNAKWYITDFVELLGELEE
Excerpt: as §1

[3] = target: T3, wtPSP (human phosphoserine phosphatase, PSP) (Homo sapiens, UniProt P78330); experiment: PNP-coupled phosphate release assay; format: biochemical
T3 construct: gene PSPH; recombinant human PSP with His-tag, plasmid pET28_hPSP, E. coli BL21(DE3), Talon purification, homodimer (54 kDa expected; 53 kDa by SEC)
T3 sequence (P78330 1-225): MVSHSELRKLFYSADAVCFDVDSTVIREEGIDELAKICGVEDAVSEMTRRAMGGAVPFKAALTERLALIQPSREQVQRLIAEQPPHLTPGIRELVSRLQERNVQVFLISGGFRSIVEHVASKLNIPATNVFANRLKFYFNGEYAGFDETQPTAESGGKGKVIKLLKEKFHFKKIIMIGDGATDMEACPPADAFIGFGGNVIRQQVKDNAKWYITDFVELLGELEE
Excerpt: as §1

[4] = target: T4, wtPSP (human phosphoserine phosphatase, PSP) (Homo sapiens, UniProt P78330, R27S); experiment: PNP-coupled phosphate release assay; format: biochemical
T4 construct: gene PSPH; recombinant human PSP with His-tag, plasmid pET28_hPSP, E. coli BL21(DE3), Talon purification, homodimer (54 kDa expected; 53 kDa by SEC)
T4 sequence (P78330 1-225 R27S): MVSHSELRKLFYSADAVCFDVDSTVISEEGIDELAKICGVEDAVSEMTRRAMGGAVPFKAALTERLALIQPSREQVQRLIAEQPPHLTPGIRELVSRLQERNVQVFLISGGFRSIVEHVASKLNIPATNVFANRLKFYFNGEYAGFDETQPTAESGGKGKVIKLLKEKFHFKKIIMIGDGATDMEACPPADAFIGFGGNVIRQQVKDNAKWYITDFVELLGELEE
Excerpt: as §1

[5] = target: T3, wtPSP (human phosphoserine phosphatase, PSP); experiment: SAT-coupled continuous assay of L-Ser production (DTNB, […] nm type read-out); format: biochemical; conditions: 3 mM MgCl2, 50 mM Hepes, 100 mM KCl, pH 7, 37 °C; 12 nM enzyme
[6] = substrate: N[C@@H](COP(=O)(O)O)C(=O)O; experiment: SAT-coupled continuous assay of L-Ser production; format: biochemical, Homo sapiens; conditions: 3 mM MgCl2, 50 mM Hepes, 100 mM KCl, pH 7, 37 °C
Excerpt: SAT-coupled continuous assay of L-Ser production on wtPSP (human phosphoserine phosphatase, PSP)

- IC50 [1]: 746 ± 26 µM
- IC50 [2]: 523 ± 74 µM
- IC50 [3]: 273 ± 31 µM
- IC50 [4]: 171 ± 15 µM
Molecule: N[C@@H](CO)C(=O)O [L-Ser]

- Km [5]: 42 ± 12 µM
Molecule: N[C@@H](COP(=O)(O)O)C(=O)O [3-PS]

B1: wtPSP (human phosphoserine phosphatase, PSP) (Homo sapiens; R27S) (protein)
chain: MVSHSELRKLFYSADAVCFDVDSTVISEEGIDELAKICGVEDAVSEMTRRAMGGAVPFKAALTERLALIQPSREQVQRLIAEQPPHLTPGIRELVSRLQERNVQVFLISGGFRSIVEHVASKLNIPATNVFANRLKFYFNGEYAGFDETQPTAESGGKGKVIKLLKEKFHFKKIIMIGDGATDMEACPPADAFIGFGGNVIRQQVKDNAKWYITDFVELLGELEE
notes: recombinant human PSP with His-tag, plasmid pET28_hPSP, E. coli BL21(DE3), Talon purification, homodimer (54 kDa expected; 53 kDa by SEC)
- Km ([6]; 12 nM enzyme): 50 ± 3 µM
- kcat ([6]; 12 nM enzyme): 39 ± 1 s⁻¹
- kcat/Km ([6]; 12 nM enzyme): 780000 M⁻¹ s⁻¹

B2: wtPSP (human phosphoserine phosphatase, PSP) (Homo sapiens; D32G) (protein)
chain: MVSHSELRKLFYSADAVCFDVDSTVIREEGIGELAKICGVEDAVSEMTRRAMGGAVPFKAALTERLALIQPSREQVQRLIAEQPPHLTPGIRELVSRLQERNVQVFLISGGFRSIVEHVASKLNIPATNVFANRLKFYFNGEYAGFDETQPTAESGGKGKVIKLLKEKFHFKKIIMIGDGATDMEACPPADAFIGFGGNVIRQQVKDNAKWYITDFVELLGELEE
notes: as for B1
- Km ([6]; 180 nM enzyme): 53 ± 5 µM
- kcat ([6]; 180 nM enzyme): 2.3 ± 0.1 s⁻¹
- kcat/Km ([6]; 180 nM enzyme): 43400 M⁻¹ s⁻¹

B3: wtPSP (human phosphoserine phosphatase, PSP) (Homo sapiens; D32G/R27S) (protein)
chain: MVSHSELRKLFYSADAVCFDVDSTVISEEGIGELAKICGVEDAVSEMTRRAMGGAVPFKAALTERLALIQPSREQVQRLIAEQPPHLTPGIRELVSRLQERNVQVFLISGGFRSIVEHVASKLNIPATNVFANRLKFYFNGEYAGFDETQPTAESGGKGKVIKLLKEKFHFKKIIMIGDGATDMEACPPADAFIGFGGNVIRQQVKDNAKWYITDFVELLGELEE
notes: as for B1
- Km ([6]; 180 nM enzyme): 75 ± 12 µM
- kcat ([6]; 180 nM enzyme): 2.2 ± 0.1 s⁻¹
- kcat/Km ([6]; 180 nM enzyme): 29300 M⁻¹ s⁻¹

Reference: paper PMC12443467, “A phosphoserine phosphatase variant present in the brain of Alzheimer's disease patients favors nuclear mistargeting” (The Febs Journal, 2025)
